Assay results published in patent US20090275637.

Biological target: T1, PTP1B catalytic domain (321 residues), GST fusion (Homo sapiens) (UniProt P18031)
T1 sequence: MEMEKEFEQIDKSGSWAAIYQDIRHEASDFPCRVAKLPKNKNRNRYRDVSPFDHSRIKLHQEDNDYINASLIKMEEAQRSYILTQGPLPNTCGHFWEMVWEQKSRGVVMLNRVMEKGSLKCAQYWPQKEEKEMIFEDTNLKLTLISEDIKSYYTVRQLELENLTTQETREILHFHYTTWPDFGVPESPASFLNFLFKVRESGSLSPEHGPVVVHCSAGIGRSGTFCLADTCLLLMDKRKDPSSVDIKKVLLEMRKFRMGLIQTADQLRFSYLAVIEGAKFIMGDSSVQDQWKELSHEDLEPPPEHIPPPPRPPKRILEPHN
Assay: filter
Conditions: round 0 pool, 200-400 nM PTP1B, 125 mM NaCl, 5 mM MgCl2

## GGGAAUGGAUCCACAUCUACGAAUUCNNNNNNNNNNNNNNNNNNNNNNNNNNNNNNUUCACUGCAGACUUGACGAAGCUU [N30 initial pool]
  binding: < 1 % retained
